{"source": "paper PMC10543557", "target": "FAM-labeled recombinant full-length SARS-CoV-2 Nsp1 (SARS-CoV-2-Nsp1_C-51-V) (SARS-CoV-2) (UniProt P0DTD1)", "assay": "fluorescence polarisation", "note": "pKd: −log10 of the molar value."}
{"substance": "40S ribosomal subunit purified from rabbit reticulocyte lysate (from UniProt G1TNM3 1-243; G1SWM1 1-292) (complex)", "values": [{"measurement": "pKd", "result": 7.52}]}
